Results published in the DeepSol protein solubility set.

Test: soluble on expression in E. coli; label from the status in PepcDB or PDB records

| Sequence | soluble on expression in E. coli |
| --- | --- |
| MAHHHHHHMSSDYSRVCAAEKASESHPPGYSRDALETELREGFRKQQQQVNKNRQVEQMALAKGLGESATTSLKDGFYIPHKVLPPLKPEEKKLFERIDIMKWCGRAGRKLEDSAVAPPPTLGEVPAEHQPMQVQEHQASTEADAEDALSTSVSSTASSLAALKDNSSEDVRHLLHQLRSTSRATSSLRDARAEVDDNIQAVEEALLRQSSPLSFEDLLDTAARLLAAMERGELTEDVVVPRGADVSTEKDEGSPGSPADSAEAPLSASGSTTRVLHGAVEVETYTRKHLLPRAYQVVAIAHTAEWILQYTMAYLRTTVAVNQDEAFTRLTLLARCVRLLGDIENFSSILLSLETKCEEYAGFAALKDTAEKHLGTLLDDVETSLDAILSAPFPSRRSRLLLLEGGIQKKLQRALLFLNEIDYSWTPHVRFHWAWKVQLLSASFHRIHGLISRKHMQCSMGFVDDSLYERVADTRITGRYMGASPVQPKVLRAQQVEYEKITEGLTFQQIGMSIKGVASLLIGEQLCMGARYILCQSTKQFDPVWGFHMDEISTAPTQEELSAMAAKIAVHAKEQLTARPTIARKEHSSSTFLTQM | not soluble |
| KRKTKEQLAILKSFFLQCQWARREDYQKLEQITGLPRPEIIQWFGDTRYALKHGQLKWFRDNA | soluble |
| MGSDKIHHHHHHMTTLGIDHPLVCVRDLAAKRATYQSLGFLMKPPGMHPWGTSTALVIFRNQLLELVSIEDESLLDGYAAGSFRFGRHVEAWLAEREGVCLSALNSMDAEADEAAVLARGGSCAGTVEFGRDVVRDDGTPDRTKTTLKIFPHAGLPRLSMFACQQHRRDLIEFPDWMDHPNGAHGFASATILAAPSDQGRVRDWLSVLHGADAVRDTDWGFEVATTNGRWRVVSRATAPALLGKLPDGLASDGAPSVISLDIRCHALSQLRPFVEAGEFVCQDVNGALVLTEVARLGGILLSFHEIPKV | not soluble |
| AVVATKVGATVMNANPFTLGHRYLIEQALAQCDHLHLFVVEEEASQFCYQERFALVQHGIADLSNITLHPSSQYIISRATFPDYFLKDSHIVDAAYLELDLRLFRQHIAPALAITHRFIGTEPFCPVTAEYNRKMHYWLQQAVMEADAINVVEIERKKVSNQAISASTVRQLFSERKWQQLLSMVPITTFNFLQKIANEP | not soluble |
| MSIKVDMSLDCKGLACPMPIVKTKKAIEGLASGQVIEVKATDKGSTVDIKSWANKVGHQYIGTKHEGDILMHYVRKAHEHEVNEVVKYPHTITNTELEEILVSGEECTVLDVREAAEFAFGHIPSATSMPLGELESLVLDKTKQIYVVCRTGNRSDVACQMLKEKGYTNVKNVIPGMIEWQGNIENLEHHHHHH | soluble |
| MGSDKIHHHHHHMKLVFRWYGEKHDTVTLEQIRQIPGVEGVVGALFDIPVGEVWPFEEIMKLKETVEKAGLKLEVIESVNVHEDIKLGLPTRDRYIENYKKTIRNLAKAGVKVVCYNFMPVFDWMRTDLHKKLPDGSETMEYDHRLIEGVTPDELIKRVKEGSQGFVLPGWEWDRLEKLRETFELYKNVDEEKLFENLVYFLERVIPVCEECDVKLAIHPDDPPWSIFGLPRIITNKENIERMLKAVDSPYNGITFCMGSLGANPENNIPEMIRYFGKMGRIHFAHVRNLKFTGEKSFYETAHPSFCGSHDLFEVMKAFHDIGYEGYIRPDHGRLIWGEKARPGYGLYDRALGATYILGLWEAIDKMKKRYC | not soluble |
| MAHHHHHHMKTLKEALTNVLSSLNIAEKKEILNVLYHILQKIIENPSRAKFRSLKKDNKTFVNKLLQFKESDELLRSLGFEEETEIWFFPVKNDHKLSSNLTEIRAFIKEHVNTIYNNQDSIFETGTASSSAHLPTDEKNVTENTSNLGDTCNNSEGLTLGGLSKRRLEKERLELLSQKENTIKLLQEHADKWIIQITGAENTLYSNETFQMQFKFTEKYPIESPEVIFLGQPPIHPHIYSNGHICLSILYDHWSPVLSVNSICLSIISMLSSCKKKRKPLDDILYCSTGPRISPKNMKWMFHDDKV | not soluble |
| LFLPNTRAYRRYNRSVWAVRGSTRPQWQPPPKFQHAKCMSMRLAHRLQILLDDECHRRITAVARERGVPVATVVREAIDRGLVSPAGRRKSAGRRLLDAADMSVPEPRELKQELEALRARRG | not soluble |
| MAHHHHHHMIICNNNVNHFWKNIKKNIRLDGRTFEDSRNVCINFLKDYGHVEISIGFTKVICKITSEIVKPHDRKLKEGILKINLDIDNFIEDNENSDNMSDECLEIKNIIDRVLKTSNIINFESLCIIPGKKVWCICINIMVIENDGNLTDACYLSAYCGLVHFKNHQVRVIKNGDIIIDKEEINYSPLSILNSPIVTTFAYYEEHDVCLIDPCLHEEEFMSSKISIALNKNGNLISLLKPGGIPLACSHIMESIEIAKKRILTILKILEDTLEEDKNIRSYLTKRNLHVKYSSAPVTIRYDNSFKLKPDISLERYTKNTLIFEDTIKKIEQYIQYNQVQECLNNMNVKLEENDQEEIETCTLKGEGNLNNPNFIDPMRNTNLLNPTDITIIKRQEFVDNHYDANNNKYNTQANKTFKKELIDFSNLLTQNHKKSNNLSNNQKDISEQHDNSQESSDDASTIRSDESSDIDFSVAINQNIKKKK | not soluble |
| MGSDKIHHHHHHMFMKNLYIDPDITKASTISSEFYTSTEWFEITKEKIFSKTWQFCISTEELTTNRQLIPFTLLPGYLEEPLLFAKDELGTIRCLSNVCTHRGKILIEEPCVAHKIKCSYHGRRFNFCGELLHMPEFELTKDFPSNNDNLSQISTGILEPFLFASLSPVVPFHEVFAEIKERLFWLPMEKMRLDKEKCKDYVVKSHWALYCENYLEALHIPFVHPSLRKVIDCNTYTTELFRYCNLQLALASPDEVSFDLPKGAQDYGKQVAAYYFWIFPNTMLNFYPWGCSVNVVKPLSPELTQVSFLSFVLDESKFGKGAGGALDQVEQEDERVVESVQRGIKSRYYDIGRFSPTKEQGTHHFQRLLCEFLND | not soluble |
| SLEGQLEAGEPKEGTHPEDPCPGAGAAMEKTPAAAEVPREDGNAEEMPSLQQQITSLHQELGRQQSLWADIHRKLQSHMDALRKQNRELREELRGLQRQQWEAGKKPAASPHAGRESHTLALEPAFGKISPLSADEETTPKYAGRKSQSATLLGQRWSSNHLAPPKPMSLKTERINSGKTPPQEDREKSPPGRRQDRSPAPTGRPTPGAERREVSEDGKIMHPSSRSPQNSGGRKSPVQASQATTLQEQTAAARGADRSSSVLGSSEGGFLSRVQADEFASSSPDSAERQNLPVNPPSSLEIAQAMDTKMKKEEVQEEKRHPKGKADDCRRSGFPSEFPGALHAAPSRQDMGP | soluble |
| MSTAVIVSRPPSQTASFHGPQHPNRCSFSSSSSESIPPTTGRAKGSSDFEELEIRIDKALKERDAEWRKHEKSQIQFLQNETSNMLKSLHNEINRLGNELREEKRKTLHGDDDSADKIAELEKVITEKEAYTKNLEKKVSTTIQKLQEQITIQSDRIRQLNEELSDRNQTVTHLSQQLRAIKLREAMATSQHRRRASSQLSTTSSPPMTSPSSPHRIFPPVSSGLLSASVAVTYPGNSRISIQKRSTSAMRAPTMPN | not soluble |
| SSNFSSERIRYAKWFLEHGFNIIPIDPESKKPVLKEWQKYSHEMPSDEEKQRFLKMIEEGYNYAIPGGQKGLVILDFESKEKLKAWIGESALEELCRKTLCTNTVHGGIHIYVLSNDIPPHKINPLFEENGKGIIDLQSYNSYVLGLGSCVNHLHCTTDKCPWKEQNYTTCYTLYNELKEISKVDLKSLLRFLAEKGKRLGITLSKTAKEWLEGKKEEEDTVVEFEELRKELVKRDSGKPVEKIKEEICTKSPPKLIKEIICENKTYADVNIDRSRGDWHVILYLMKHGVTDPDKILELLPRDSKAKENEKWNTQKYFVITLSKAWSVVKKYLEA | soluble |
| MLRRQMSFNGKSDMGILYLVPTPIGNLEDMTFRAIDTLKSVDAIAAEDTRQTKKLCHVYEIETPLVSYHEHNKESSGHKIIEWLKSGKNIALVSDAGLPTISDPGAEIVKDFTDIGGYVVPLPGANAALTALIASGIVPQPFFFYGFLNRQKKEKKKELEALKKRQETIIFYEAPHRLKETLSAMAEILGDREIAVTRELTKKYEEFIRGTISEVIGWANEDQIRGEFCLVVEGSNNEEVDEEEQWWETLTAKEHVEHYISKGATSKEAIKKAAVDRNVPKREVYDAYHIKQ | soluble |
| MKNLVEEKEAFRFGVSGDIGSFSEEAALLYARKKGLNAHLVHLLDMEGVLNAIENETIDLGILPVVNLLGGLVKPAFQAMGKYSFTPIDEIWHDINQCLLVKTNTQNHKITHIVSHPQGFAQCKKFLRNKFKNAKKIEWIDTAKAAKDLAEGILPPHAAVIASARCAPLYDLKISARNIQDSHLNRTAFILVKKLEHHHHHH | not soluble |
| MSLKLTPEAAGTFAIAPTPFHDDGKIDDVSIDRLTDFYAEVGCEGVTVLGILGEAPKLDAAEAEAVATRFIKRAKSMQVIVGVSAPGFAAMRRLARLSMDAGAAGVMIAPPPSLRTDEQITTYFRQATEAIGDDVPWVLQDYPLTLSVVMTPKVIRQIVMDSASCVMLKHEDWPGLEKITTLRGFQKDGSLRPLSILCGNGGLFLDFEMERGADGAMTGYCFPDMLVDVVKLSKAGQRDLAHNLFDAHLPLIRYEHQQGVGLSVRKYVLKKRGLLSSSAQRKPGASLTDTAREEVDYLLSRLARVDKRADFEPRTKAAEEGHHHHHH | soluble |
| MTLKNNILPLLMLSCCFVLAACSSSNSASASASNKNKNMEPNKGRYSLKNDKMPLNPPNVDHVPNATPKYEPYSRRGNKPYTVYGESYTVLNSGEGFSETGRASWYGEKFHGYETSNGEPYDMYGMSGAHKTLPLPSYARVTNLDNNKQVIIRINDRGPFHSERILDLSYAAAYKLGMLGTGTARIKLDVIYIGSKAATQSAIASVHSSGNHYIQLVASKDKQRLHKMAKDLEKKYQVKTRVQPANNMFRLQLGPIGQAELADRLLIKVKQDGYPAGYIVSEK | not soluble |
| MKTPAILLLLFLFMMSLAQSDEEQSGKEPPEKDDVLVILAEDNSTLLNNNQTMYDPSSEEKESDKPKFNLLETYLPLFIFVLDLPTEDRETLKAYVKDKTYEKLKYVIDSKVKMNRNEKNVLGRINESLVQSIDNLEHFDEITVDVVNGYHNASVYNAIRSVWLKQLRPFLPLIDQMAIQQKSSETEKMSIWARLWENLSVWMYGKKKLNECYAMEPKCVRHALELLNFEQRIDLDLAAYENKFDSVDGIIRERLGENRKSSELDEWLHRNRPPKALQAILDERSDIEEEALQRLRDNGVLSSLKHYYKAVIESRSHEEQEDIRHFFDIMNDTFARCFDPLRGQYHDF | not soluble |
| MVQDWEFIVSFLKINWILMNHVTAPYSYVDVSYDNIPFVGKIPIIGKDGTSSRLGVSPFYPADGNPSNPFPPIYKARPLPLHVPEPQDVVAVPLDEEALHGEPLFPPELILPSELAAEEAAKKKALETKKPENPFADVVETNEQLDTVHWPTAVSTSEIEGEDSQGKNMVQEDEPQRSVIIDEAREKPMQPFEAAKISIGANDRPKNPFRSRRILMERF | not soluble |
| MLRTICKQHTALPDKSIRKLEKIAEGLTVLSKLLKADIFIDCPTGINDAAIVVAEANPETGSSYTQSVVGQYAYRKNEPAVLRTLETGLPSRDYKALTQENTLVRQNVVPIKNEKEEVIGVLIVEEGSNDTGLNKELNFLHDATNELLRSSMEMTKEQKIIDYINDGIIIFNEKGILIYANSKAKNIYKKIGYKHNILGTKFSNIVLNNIAFKDVLDGIIPGSSDIHIAKMDLNIHYYLIKESKNVKNVVLFIKDLTEIKEKEKELILKSVAIKEIHHRVKNNLQTIASLLRIQARKTEDEAVRQAFNESINRILSIAVTHEILAQNGLDDLKIKEMFSKILKNSIRASIGENLDLKTSISGDDFKINSDKSTSIALIANELVQNSITHGFKGMTSGKIDITVKQGKIKSKVTIADNGVGFKSKDFKNESLGLQIVKSLVKEKLFGTIDIKSTKNGTIIVFDFEN | not soluble |
